Measurements as given in PMC8811538, “Pilot scale production, extraction and purification of a thermostable phycocyanin from Synechocystis sp. PCC 6803” (Bioresource Technology, 2022).
Where “and” joins values, the source holds several entries; their conditions need not be identical. Identical values can stand only once.

Experiments:
[1] = molecular target: the molecule itself; experiment: SEC; purified, freeze-dried Te-PC resuspended in 15 mM citric acid-trisodium citrate pH 6.0; 250 µL (425 µg Te-PC) on Superdex-200 10/300 GL in 100 mM trisodium citrate, pH 6.0, 8 °C, 0.5 mL/min; absorption at 280 and 615 nm; sizes from molecular weight standards (apparent); peaks about 5% hexamer, 80% trimer, 15% (ɑβ) monomer
[2] = molecular target: T1, phycocyanin β-subunit (CpcB) of Te-PC (Thermosynechococcus elongatus BP-1, UniProt P50033 1-172, phycobilin chromophore (chromophorylated; sites not given)); experiment: as above; details: both partners purified
T1 construct: phycocyanin beta-subunit CpcB of Thermosynechococcus elongatus BP-1, expressed from the cpcBACD (TeBACD) operon; source: Synechocystis sp
T1 sequence (looked up): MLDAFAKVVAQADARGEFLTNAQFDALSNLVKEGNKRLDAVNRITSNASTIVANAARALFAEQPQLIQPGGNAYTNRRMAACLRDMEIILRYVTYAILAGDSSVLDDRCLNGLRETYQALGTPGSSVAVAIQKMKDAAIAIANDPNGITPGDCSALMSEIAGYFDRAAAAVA

B1: thermostable phycocyanin from Thermosynechococcus elongatus BP-1, (ɑβ) monomer (complex)
chain 1: not shown
chain 2: T1 sequence (looked up)
modifications: phycobilin chromophore (chromophorylated; sites not given) | phycobilin chromophore (chromophorylated; sites not given)
notes: phycocyanin alpha-subunit CpcA of Thermosynechococcus elongatus BP-1, expressed from the cpcBACD (TeBACD) operon; phycocyanin beta-subunit CpcB of Thermosynechococcus elongatus BP-1, expressed from the cpcBACD (TeBACD) operon; The construct is described in the supplementary materials and in Puzorjov et al., 2021; also called Te-PC; PC; source: Synechocystis sp
Q: Which “stoichiometry N” value [1] does the source give for B1 here?
A: 6 and 3

B2: phycocyanin ⍺-subunit (CpcA) of Te-PC (natural protein)
chain: not shown
modifications: phycobilin chromophore (chromophorylated; sites not given)
notes: phycocyanin alpha-subunit CpcA of Thermosynechococcus elongatus BP-1, expressed from the cpcBACD (TeBACD) operon; source: Synechocystis sp
Q: Does B2 bind [2]?
A: binds
